# Laboratory results as given in IntAct's records for PubMed 17012248.
# B1: Sialic acid-binding Ig-like lectin 14 (Homo sapiens), Q08ET2 (parent)
# chain: MLPLLLLPLLWGGSLQEKPVYELQVQKSVTVQEGLCVLVPCSFSYPWRSWYSSPPLYVYWFRDGEIPYYAEVVATNNPDRRVKPETQGRFRLLGDVQKKNCSLSIGDARMEDTGSYFFRVERGRDVKYSYQQNKLNLEVTALIEKPDIHFLEPLESGRPTRLSCSLPGSCEAGPPLTFSWTGNALSPLDPETTRSSELTLTPRPEDHGTNLTCQVKRQGAQVTTERTVQLNVSYAPQNLAISIFFRNGTGTALRILSNGMSVPIQEGQSLFLACTVDSNPPASLSWFREGKALNPSQTSMSGTLELPNIGAREGGEFTCRVQHPLGSQHLSFILSVQRSSSSCICVTEKQQGSWPLVLTLIRGALMGAGFLLTYGLTWIYYTRCGGPQQSRAERPG
# Variants of: B1
# Conditions: with tyobp_human TYROBP
row,effect of a mutation on the interaction,Variant
1,decreasing interaction,R362A
